The term Kd denotes a measure of binding affinity in units of concentration. A low value points to higher affinity.

In the assay the target is Cry1AbMod protoxin (Bacillus thuringiensis, UniProt P0A370 1-1155). In words: ELISA. A general note: ELISA stands for enzyme-linked immunosorbent assay.

B1: Manduca sexta cadherin protein fragment (CR7–CR12) (domain or fragment)
chain: MIDFLTGQISVNTSGAIDADTPPRFHLYYTVVASDRCSTEDPADCPPDPTYWETEGNITIHITDTNNKVPQAETTKFDTVVYIYENATHLDEVVTLIASDLDRDEIYHTVSYVINYAVNPRLMNFFSVNRETGLVYVDYETQGSGEVLDRDGDEPTHRIFFNLIDNFMGEGEGNRNQNDTEVLVILLDVNDNAPELPPPSELSWTISENLKQGVRLEPHIFAPDRDEPDTDNSRVGYEILNLSTERDIEVPELFVMIQIANVTGELETAMDLKGYWGTYAIHIRAFDHGIPQMSMNETYELIIHPFNYYAPEFVFPTNDAVIRLARERAVINGVLATVNGEFLERISATDPDGLHAGVVTFQVVGDEESQRYFQVVNDGENLGSLRLLQAVPEEIREFRITIRATDQGTDPGPLSTDMTFRVVFVPTQGEPRFASSEHAVAFIEKSAGMEESHQLPLAQDIKNHLCEDDCHSIYYRIIDGNSEGHFGLDPVRNRLFLKKELIREQSASHTLQVAASNSPDGGIPLPASILTVTVTVREADPRPVFVRELYTAGISTADSIGRELLRLHATQSEGSAITYAIDYDTMVVDPSLEAVRQSAFVLNAQTGVLTLNIQPTATMHGLFKFEVTATDTAGAQDRTDVTVYVVSSQNRVYFVFVNTLQQVEDNRDFIA
As for B1, the Kd was found to be 6.8 nM.

Values taken from paper PMC3969221 (2014).
